Experimental data reported in the supplement of paper PMC5998384.

Experiments:
HeLa Kyoto [1] = test: solubility in G1/S (NP-40 vs SDS abundance) (log2 ratio); higher = more soluble; settings: cell cycle stage: G1/S
HeLa Kyoto [2] = test: melting temperature (median over replicates), in situ; higher = more thermally stable
HeLa Kyoto [3] = test: solubility change mitosis vs G1/S (difference of NP-40 vs SDS log2 ratios) (log2 ratio difference); higher = more soluble in mitosis
HeLa Kyoto [4] = test: thermal stability score vs G1/S (z-score of summed log2 fold changes over temperatures); higher = more thermally stable than in G1/S
[5] = cell cycle stage: early G1 (4.5 h after nocodazole release)
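For melting temperature (median over replicates), in situ in this document: HeLa Kyoto cells synchronized by double thymidine or nocodazole block, proteins quantified by TMT10plex mass spectrometry, three independent biological replicates.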
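For solubility change mitosis vs G1/S (difference of NP-40 vs SDS log2 ratios) in this document: synchronized HeLa Kyoto cells (double thymidine block for G1/S, nocodazole release for mitosis), protein amounts in NP-40 versus SDS lysates quantified by mass spectrometry, three biological replicates.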
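For solubility in G1/S (NP-40 vs SDS abundance) in this document: HeLa Kyoto cells arrested at G1/S by double thymidine block, proteins quantified by TMT10plex mass spectrometry in mild NP-40 versus SDS extracts, three biological replicates.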
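For thermal stability score vs G1/S (z-score of summed log2 fold changes over temperatures) in this document: synchronized HeLa Kyoto cells, proteins quantified by TMT10plex mass spectrometry, three biological replicates, mitosis taken 0.5 h after nocodazole release, G1/S directly after double thymidine block.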

Sequence	solubility in G1/S (log2) (HeLa Kyoto [1])	melting temperature (HeLa Kyoto [2]; cell cycle stage: G1/S) [°C]	melting temperature (HeLa Kyoto [2]; cell cycle stage: mitosis) [°C]	solubility change mitosis (log2) (HeLa Kyoto [3])	thermal stability score (HeLa Kyoto [4]; [5])	thermal stability score (HeLa Kyoto [4]; cell cycle stage: mitosis)
MAEGERQPPPDSSEEAPPATQNFIIPKKEIHTVPDMGKWKRSQAYADYIGFILTLNEGVKGKKLTFEYRVSEMWNEVHEEKEQAAKQSVSCDECIPLPRAGHCAPSEAIEKLVALLNTLDRWIDETPPVDQPSRFGNKAYRTWYAKLDEEAENLVATVVPTHLAAAVPEVAVYLKESVGNSTRIDYGTGHEAAFAAFLCCLCKIGVLRVDDQIAIVFKVFNRYLEVMRKLQKTYRMEPAGSQGVWGLDDFQFLPFIWGSSQLIDHPYLEPRHFVDEKAVNENHKDYMFLECILFITEMKTGPFAEHSNQLWNISAVPSWSKVNQGLIRMYKAECLEKFPVIQHFKFGSLLPIHPVTSG [PPP2R4]	0.247	53.8	53.8	-0.119	2.14	2.26
MAEGGGCRERPDAETQKSELGPLMRTTLQRGAQWYLIDSRWFKQWKKYVGFDSWDMYNVGEHNLFPGPIDNSGLFSDPESQTLKEHLIDELDYVLVPTEAWNKLLNWYGCVEGQQPIVRKVVEHGLFVKHCKVEVYLLELKLCENSDPTNVLSCHFSKADTIATIEKEMRKLFNIPAERETRLWNKYMSNTYEQLSKLDNTVQDAGLYQGQVLVIEPQNEDGTWPRQTLQSKSSTAPSRNFTTSPKSSASPYSSVSASLIANGDSTSTCGMHSSGVSRGGSGFSASYNCQEPPSSHIQPGLCGLGNLGNTCFMNSALQCLSNTAPLTDYFLKDEYEAEINRDNPLGMKGEIAEAYAELIKQMWSGRDAHVAPRMFKTQVGRFAPQFSGYQQQDSQELLAFLLDGLHEDLNRVKKKPYLELKDANGRPDAVVAKEAWENHRLRNDSVIVDTFHGLFKSTLVCPECAKVSVTFDPFCYLTLPLPLKKDRVMEVFLVPADPHCRPTQYRVTVPLMGAVSDLCEALSRLSGIAAENMVVADVYNHRFHKIFQMDEGLNHIMPRDDIFVYEVCSTSVDGSECVTLPVYFRERKSRPSSTSSASALYGQPLLLSVPKHKLTLESLYQAVCDRISRYVKQPLPDEFGSSPLEPGACNGSRNSCEGEDEEEMEHQEEGKEQLSETEGSGEDEPGNDPSETTQKKIKGQPCPKRLFTFSLVNSYGTADINSLAADGKLLKLNSRSTLAMDWDSETRRLYYDEQESEAYEKHVSMLQPQKKKKTTVALRDCIELFTTMETLGEHDPWYCPNCKKHQQATKKFDLWSLPKILVVHLKRFSYNRYWRDKLDTVVEFPIRGLNMSEFVCNLSARPYVYDLIAVSNHYGAMGVGHYTAYAKNKLNGKWYYFDDSNVSLASEDQIVTKAAYVLFYQRRDDEFYKTPSLSSSGSSDGGTRPSSSQQGFGDDEACSMDTN [USP4]	0.0816	48.4	48.5	-0.278	0.154	0.64
MAEGSAVSDPQHAARLLRALSSFREESRFCDAHLVLDGEEIPVQKNILAAASPYIRTKLNYNPPKDDGSTYKIELEGISVMVMREILDYIFSGQIRLNEDTIQDVVQAADLLLLTDLKTLCCEFLEGCIAAENCIGIRDFALHYCLHHVHYLATEYLETHFRDVSSTEEFLELSPQKLKEVISLEKLNVGNERYVFEAVIRWIAHDTEIRKVHMKDVMSALWVSGLDSSYLREQMLNEPLVREIVKECSNIPLSQPQQGEAMLANFKPRGYSECIVTVGGEERVSRKPTAAMRCMCPLYDPNRQLWIELAPLSMPRINHGVLSAEGFLFVFGGQDENKQTLSSGEKYDPDANTWTALPPMNEARHNFGIVEIDGMLYILGGEDGEKELISMECYDIYSKTWTKQPDLTMVRKIGCYAAMKKKIYAMGGGSYGKLFESVECYDPRTQQWTAICPLKERRFGAVACGVAMELYVFGGVRSREDAQGSEMVTCKSEFYHDEFKRWIYLNDQNLCIPASSSFVYGAVPIGASIYVIGDLDTGTNYDYVREFKRSTGTWHHTKPLLPSDLRRTGCAALRIANCKLFRLQLQQGLFRIRVHSP [GAN]	-0.0081	51.6	48.7	-0.271	-0.83	-2.48
MAEGSGEVVAVSATGAANGLNNGAGGTSATTCNPLSRKLHKILETRLDNDKEMLEALKALSTFFVENSLRTRRNLRGDIERKSLAINEEFVSIFKEVKEELESISEDVQAMSNCCQDMTSRLQAAKEQTQDLIVKTTKLQSESQKLEIRAQVADAFLSKFQLTSDEMSLLRGTREGPITEDFFKALGRVKQIHNDVKVLLRTNQQTAGLEIMEQMALLQETAYERLYRWAQSECRTLTQESCDVSPVLTQAMEALQDRPVLYKYTLDEFGTARRSTVVRGFIDALTRGGPGGTPRPIEMHSHDPLRYVGDMLAWLHQATASEKEHLEALLKHVTTQGVEENIQEVVGHITEGVCRPLKVRIEQVIVAEPGAVLLYKISNLLKFYHHTISGIVGNSATALLTTIEEMHLLSKKIFFNSLSLHASKLMDKVELPPPDLGPSSALNQTLMLLREVLASHDSSVVPLDARQADFVQVLSCVLDPLLQMCTVSASNLGTADMATFMVNSLYMMKTTLALFEFTDRRLEMLQFQIEAHLDTLINEQASYVLTRVGLSYIYNTVQQHKPEQGSLANMPNLDSVTLKAAMVQFDRYLSAPDNLLIPQLNFLLSATVKEQIVKQSTELVCRAYGEVYAAVMNPINEYKDPENILHRSPQQVQTLLS [COG6]	0.289	48.6	49.3	-0.0596	0.0299	0.655
MAEKFDCHYCRDPLQGKKYVQKDGHHCCLKCFDKFCANTCVECRKPIGADSKEVHYKNRFWHDTCFRCAKCLHPLANETFVAKDNKILCNKCTTREDSPKCKGCFKAIVAGDQNVEYKGTVWHKDCFTCSNCKQVIGTGSFFPKGEDFYCVTCHETKFAKHCVKCNKAITSGGITYQDQPWHADCFVCVTCSKKLAGQRFTAVEDQYYCVDCYKNFVAKKCAGCKNPITGKRTVSRVSHPVSKARKPPVCHGKRLPLTLFPSANLRGRHPGGERTCPSWVVVLYRKNRSLAAPRGPGLVKAPVWWPMKDNPGTTTASTAKNAP [FHL1]	-0.37	56.4	58.5	-0.0498	0.0455	-3.17
MAELDIGQHCQVEHCRQRDFLPFVCDDCSGIFCLEHRSRESHGCPEVTVINERLKTDQHTSYPCSFKDCAERELVAVICPYCEKNFCLRHRHQSDHECEKLEIPKPRMAATQKLVKDIIDSKTGETASKRWKGAKNSETAAKVALMKLKMHADGDKSLPQTERIYFQVFLPKGSKEKSKPMFFCHRWSIGKAIDFAASLARLKNDNNKFTAKKLRLCHITSGEALPLDHTLETWIAKEDCPLYNGGNIILEYLNDEEQFCKNVESYLE [ZFAND1]	0.496	50.6	49.9	-0.173	-0.0516	1.54
MAELTALESLIEMGFPRGRAEKALALTGNQGIEAAMDWLMEHEDDPDVDEPLETPLGHILGREPTSSEQGGLEGSGSAAGEGKPALSEEERQEQTKRMLELVAQKQREREEREEREALERERQRRRQGQELSAARQRLQEDEMRRAAEERRREKAEELAARQRVREKIERDKAERAKKYGGSVGSQPPPVAPEPGPVPSSPSQEPPTKREYDQCRIQVRLPDGTSLTQTFRAREQLAAVRLYVELHRGEELGGGQDPVQLLSGFPRRAFSEADMERPLQELGLVPSAVLIVAKKCPS [UBXN1]	0.608	52.1	51.3	0.313	-1.73	-2.31
MAEPFLSEYQHQPQTSNCTGAAAVQEELNPERPPGAEERVPEEDSRWQSRAFPQLGGRPGPEGEGSLESQPPPLQTQACPESSCLREGEKGQNGDDSSAGGDFPPPAEVEPTPEAELLAQPCHDSEASKLGAPAAGGEEEWGQQQRQLGKKKHRRRPSKKKRHWKPYYKLTWEEKKKFDEKQSLRASRIRAEMFAKGQPVAPYNTTQFLMDDHDQEEPDLKTGLYSKRAAAKSDDTSDDDFMEEGGEEDGGSDGMGGDGSEFLQRDFSETYERYHTESLQNMSKQELIKEYLELEKCLSRMEDENNRLRLESKRLGGDDARVRELELELDRLRAENLQLLTENELHRQQERAPLSKFGD [HEXIM1]	0.211	57.6	55.5	0.123	-4.2	-2.03
MAEPTVCSFLTKVLCAHGGRMFLKDLRGHVELSEARLRDVLQRAGPERFLLQEVETQEGLGDAEAEAAAGAVGGGGTSAWRVVAVSSVRLCARYQRGECQACDQLHFCRRHMLGKCPNRDCWSTCTLSHDIHTPVNMQVLKSHGLFGLNENQLRILLLQNDPCLLPEVCLLYNKGEALYGYCNLKDKCNKFHVCKSFVKGECKLQTCKRSHQLIHAASLKLLQDQGLNIPSVVNFQIISTYKHMKLHKMLENTDNSSPSTEHSQGLEKQGVHAAGAAEAGPLASVPAQSAKKPCPVSCEK [ZC3HAV1L]	0.135	50.2	50.2	-0.0672	0.166	-0.0104
MAEQATKSVLFVCLGNICRSPIAEAVFRKLVTDQNISENWRVDSAATSGYEIGNPPDYRGQSCMKRHGIPMSHVARQITKEDFATFDYILCMDESNLRDLNRKSNQVKTCKAKIELLGSYDPQKQLIIEDPYYGNDSDFETVYQQCVRCCRAFLEKAH [ACP1]	0.178	50.2	51	-0.0468	-0.241	-0.21
MAEQLSPGKAVDQVCTFLFKKPGRKGAAGRRKRPACDPEPGESGSSSDEGCTVVRPEKKRVTHNPMIQKTRDSGKQKAAYGDLSSEEEEENEPESLGVVYKSTRSAKPVGPEDMGATAVYELDTEKERDAQAIFERSQKIQEELRGKEDDKIYRGINNYQKYMKPKDTSMGNASSGMVRKGPIRAPEHLRATVRWDYQPDICKDYKETGFCGFGDSCKFLHDRSDYKHGWQIERELDEGRYGVYEDENYEVGSDDEEIPFKCFICRQSFQNPVVTKCRHYFCESCALQHFRTTPRCYVCDQQTNGVFNPAKELIAKLEKHRATGEGGASDLPEDPDEDAIPIT [RNF113A]	0.17	55.6	63.5	0.0489	-3.12	-4.15
MAERGGDGGESERFNPGELRMAQQQALRFRGPAPPPNAVMRGPPPLMRPPPPFGMMRGPPPPPRPPFGRPPFDPNMPPMPPPGGIPPPMGPPHLQRPPFMPPPMSSMPPPPGMMFPPGMPPVTAPGTPALPPTEEIWVENKTPDGKVYYYNARTRESAWTKPDGVKVIQQSELTPMLAAQAQVQAQAQAQAQAQAQAQAQAQAQAQAQAQAQAQAQAQAQAQAQAQAQAQAQAQAQAQAQAQVQAQVQAQVQAQAVGASTPTTSSPAPAVSTSTSSSTPSSTTSTTTTATSVAQTVSTPTTQDQTPSSAVSVATPTVSVSTPAPTATPVQTVPQPHPQTLPPAVPHSVPQPTTAIPAFPPVMVPPFRVPLPGMPIPLPGVAMMQIVSCPYVKTVATTKTGVLPGMAPPIVPMIHPQVAIAASPATLAGATAVSEWTEYKTADGKTYYYNNRTLESTWEKPQELKEKEKLEEKIKEPIKEPSEEPLPMETEEEDPKEEPIKEIKEEPKEEEMTEEEKAAQKAKPVATAPIPGTPWCVVWTGDERVFFYNPTTRLSMWDRPDDLIGRADVDKIIQEPPHKKGMEELKKLRHPTPTMLSIQKWQFSMSAIKEEQELMEEINEDEPVKAKKRKRDDNKDIDSEKEAAMEAEIKAARERAIVPLEARMKQFKDMLLERGVSAFSTWEKELHKIVFDPRYLLLNPKERKQVFDQYVKTRAEEERREKKNKIMQAKEDFKKMMEEAKFNPRATFSEFAAKHAKDSRFKAIEKMKDREALFNEFVAAARKKEKEDSKTRGEKIKSDFFELLSNHHLDSQSRWSKVKDKVESDPRYKAVDSSSMREDLFKQYIEKIAKNLDSEKEKELERQARIEASLREREREVQKARSEQTKEIDREREQHKREEAIQNFKALLSDMVRSSDVSWSDTRRTLRKDHRWESGSLLEREEKEKLFNEHIEALTKKKREHFRQLLDETSAITLTSTWKEVKKIIKEDPRCIKFSSSDRKKQREFEEYIRDKYITAKADFRTLLKETKFITYRSKKLIQESDQHLKDVEKILQNDKRYLVLDCVPEERRKLIVAYVDDLDRRGPPPPPTASEPTRRSTK [TCERG1]	0.0535	48.5	48.8	-0.0317	2.7	5.16
